Results on one molecule are retold here after patent publication US20240342298A1 (IMMUNWORK, published 2024).

For orientation: EC50 means the midpoint of the concentration-response curve. High values mean a need for much substance, low ones an effect from little substance.

Experiment [1] concerns the target T1, human CD38 (human, UniProt P28907 1-300).
T1 construct: whole, on cells; also called full-length human CD38
As to the kind of experiment: flow cytometry on live U266-CD38+ cells, PE anti-human IgG-Fc detection. A general note: In flow cytometry, cells or beads pass a laser one at a time.

Experiment [2] has as its target T1, human CD38. As to the kind of experiment: flow cytometry on live H929 cells, PE anti-human IgG-Fc detection.

B1: daratumumab (antibody, V domains shown)
VH: EVQLLESGGGLVQPGGSLRLSCAVSGFTFNSFAMSWVRQAPGKGLEWVSAISGSGGGTYYADSVKGRFTISRDNSKNTLYLQMNSLRAEDTAVYFCAKDKILWFGEPVFDYWGQGTLVTVSS
VL: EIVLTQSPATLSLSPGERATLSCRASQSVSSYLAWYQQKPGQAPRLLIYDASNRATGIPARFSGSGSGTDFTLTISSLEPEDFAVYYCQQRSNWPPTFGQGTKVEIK
For B1, the values for the EC50 with human CD38 [1] and in the experiment with human CD38 [2] were 0.13 nM and 1.02 nM, respectively.
